{"source": "paper PMC4357707", "about": "(Nucleic Acids Research, 2015)", "test_in_all_cases": "EMSA", "key": {"HEN1 wt [1]": {"molecular_target": "T1, HEN1 wt (Arabidopsis thaliana, UniProt Q9C5Q8 1-942)", "T1 sequence": "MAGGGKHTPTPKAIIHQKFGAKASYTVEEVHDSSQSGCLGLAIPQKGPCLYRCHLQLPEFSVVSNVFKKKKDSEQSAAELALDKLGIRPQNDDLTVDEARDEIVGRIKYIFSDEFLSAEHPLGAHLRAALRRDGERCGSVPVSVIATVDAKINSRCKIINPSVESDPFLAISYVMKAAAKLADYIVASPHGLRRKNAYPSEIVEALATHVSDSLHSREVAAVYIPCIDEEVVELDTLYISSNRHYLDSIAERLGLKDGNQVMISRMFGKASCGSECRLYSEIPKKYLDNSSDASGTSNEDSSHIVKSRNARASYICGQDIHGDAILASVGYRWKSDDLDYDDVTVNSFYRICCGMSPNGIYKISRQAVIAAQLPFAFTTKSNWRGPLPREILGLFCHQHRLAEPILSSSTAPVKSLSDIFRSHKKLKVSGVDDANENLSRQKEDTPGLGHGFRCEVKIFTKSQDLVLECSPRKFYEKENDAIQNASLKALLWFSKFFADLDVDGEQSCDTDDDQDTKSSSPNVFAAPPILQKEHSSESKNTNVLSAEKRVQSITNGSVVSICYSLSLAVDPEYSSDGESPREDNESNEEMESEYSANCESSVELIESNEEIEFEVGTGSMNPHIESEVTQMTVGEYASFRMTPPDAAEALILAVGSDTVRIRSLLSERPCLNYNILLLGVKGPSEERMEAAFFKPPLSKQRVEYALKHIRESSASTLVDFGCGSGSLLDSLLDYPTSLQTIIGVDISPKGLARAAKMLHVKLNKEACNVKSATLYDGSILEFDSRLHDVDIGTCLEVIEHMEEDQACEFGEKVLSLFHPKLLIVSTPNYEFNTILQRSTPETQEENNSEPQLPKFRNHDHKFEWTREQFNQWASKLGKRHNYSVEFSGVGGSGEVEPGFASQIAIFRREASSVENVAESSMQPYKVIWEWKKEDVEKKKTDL"}, "HEN1-RHK389,397,477AAA [2]": {"molecular_target": "T2, HEN1-RHK389,397,477AAA (Arabidopsis thaliana, UniProt Q9C5Q8 1-942, R389A;H397A;K477A)", "T2 sequence": "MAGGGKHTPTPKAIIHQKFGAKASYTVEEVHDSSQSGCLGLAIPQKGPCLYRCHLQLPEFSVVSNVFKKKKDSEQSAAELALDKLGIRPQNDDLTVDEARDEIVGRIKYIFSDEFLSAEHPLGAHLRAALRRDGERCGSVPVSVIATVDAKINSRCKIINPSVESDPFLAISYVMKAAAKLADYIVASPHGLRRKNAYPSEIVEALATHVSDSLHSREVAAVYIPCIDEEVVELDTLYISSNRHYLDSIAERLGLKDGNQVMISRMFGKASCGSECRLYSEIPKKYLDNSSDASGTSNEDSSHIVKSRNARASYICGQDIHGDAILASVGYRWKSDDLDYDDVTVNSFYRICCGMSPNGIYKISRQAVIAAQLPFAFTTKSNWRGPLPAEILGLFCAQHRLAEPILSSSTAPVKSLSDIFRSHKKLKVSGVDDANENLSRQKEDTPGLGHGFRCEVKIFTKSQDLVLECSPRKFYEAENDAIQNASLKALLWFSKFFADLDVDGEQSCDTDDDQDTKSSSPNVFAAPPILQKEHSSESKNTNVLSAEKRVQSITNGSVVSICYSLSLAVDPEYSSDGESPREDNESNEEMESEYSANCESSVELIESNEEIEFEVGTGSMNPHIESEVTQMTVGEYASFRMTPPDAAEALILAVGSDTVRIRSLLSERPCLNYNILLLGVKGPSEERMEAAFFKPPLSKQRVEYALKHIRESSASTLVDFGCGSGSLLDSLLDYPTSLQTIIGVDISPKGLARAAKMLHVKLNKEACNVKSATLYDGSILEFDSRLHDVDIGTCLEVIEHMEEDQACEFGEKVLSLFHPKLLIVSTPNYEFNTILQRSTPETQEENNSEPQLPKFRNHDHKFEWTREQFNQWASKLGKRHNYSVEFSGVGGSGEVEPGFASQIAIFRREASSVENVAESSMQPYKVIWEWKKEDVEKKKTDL"}, "HEN1 wt [3]": {"molecular_target": "T1, HEN1 wt", "remark": "listed apart in the source"}, "HEN1-RHK389,397,477AAA [4]": {"molecular_target": "T2, HEN1-RHK389,397,477AAA", "remark": "listed apart in the source"}}, "note": "Read-outs that look alike come from different tables or passages of the source.", "data": [{"binder": "miR173/miR173* (dsRNA) RNA 1: UUCGCUUGCAGAGAGAAAUCAC RNA 2: GAUUCUCUGUGUAAGCGAAAG", "values": [{"measurement": "Kd", "setting": "HEN1 wt [1]", "result": "0.43 ± 0.05", "unit": "nM"}, {"measurement": "Kd", "setting": "HEN1-RHK389,397,477AAA [2]", "result": "302 ± 29", "unit": "nM"}, {"measurement": "Kd", "setting": "HEN1 wt [3]", "result": "0.32 ± 0.03", "unit": "nM"}, {"measurement": "Kd", "setting": "HEN1-RHK389,397,477AAA [4]", "result": "65 ± 12", "unit": "nM"}]}]}
